Source: patent US20030180282A1, “Method of treatment of thrombotic events” (priority 2002, published 2003)

What was measured:
Type in all cases: cell-based, human
[1] = test system: platelets; experiment: in vitro comparison of TNK versus t-PA on platelet activation and surface receptor expression (15 parameters); conditions: TNK 12 μg/mL, t-PA 4 μg/mL, 30 minutes
Protocol: Blood samples for the in vitro study were obtained from 9 healthy volunteers. None of the subjects smoked or had hypertension, diabetes, or an abnormal hematocrit. None had received aspirin or any other antiplatelet drugs. All subjects underwent blood sampling after at least 30 minutes of rest and 2 or more hours of fasting. Blood was drawn from an antecubital vein between 8 am and 10 am in order to avoid any diurnal influence. A 21-gauge butterfly needle was used to draw blood into a tube containing 3.8% sodium citrate (1:9 volume); the first 1.5 mL of free running blood was discarded. One tube was kept as an internal control. A second tube was incubated with tenecteplase (TNK) for 30 minutes at room temperature in order to achieve a final concentration of 12 μg/mL. […]
For the platelet aggregation (PA) studies, platelet-rich plasma (PRP) was first isolated. […] Platelet counts were determined for each PRP sample with a Coulter Counter ZM (Coulter Co., Hialeah, Fla.). […] Platelet aggregation was determined by using a 4 channel Chrono-log Lumi-Aggregometer (model 560-Ca) and expressed as the maximum percentage of light transmittance change (% max) from the baseline at the end of the recording time. […] Platelet aggregability curves were recorded for 6 minutes and analyzed according to internationally established standards (see, e.g., Ruggeri, Z. M. (1994) Semin. Hemat. 31:229-239). […]

[2] = test system: platelets; experiment: rapid platelet-function assay (Ultegra); conditions: TNK 12 μg/mL, t-PA 4 μg/mL
Protocol: (§1) Blood samples for the in vitro study were obtained from 9 healthy volunteers. None of the subjects smoked or had hypertension, diabetes, or an abnormal hematocrit. None had received aspirin or any other antiplatelet drugs. All subjects underwent blood sampling after at least 30 minutes of rest and 2 or more hours of fasting. Blood was drawn from an antecubital vein between 8 am and 10 am in order to avoid any diurnal influence. A 21-gauge butterfly needle was used to draw blood into a tube containing 3.8% sodium citrate (1:9 volume); the first 1.5 mL of free running blood was discarded. One tube was kept as an internal control. A second tube was incubated with tenecteplase (TNK) for 30 minutes at room temperature in order to achieve a final concentration of 12 μg/mL. The third tube was similarly incubated with alteplase (t-PA) to achieve a concentration of 4 μg/mL. The concentrations of TNK and t-PA that were chosen approximated conventional plasma levels observed in patients receiving TNK and t-PA bolus (30 mg, and 15 mg, respectively; data on file, Genentech, Inc., South San Francisco, Calif.). Fresh solutions of TNK and t-PA were prepared in Dulbecco's phosphate buffered saline (DPBS) ex tempore on the morning of the platelet studies.
With rapid platelet-function assay (RPFA (Ultegra®); Accumetrics, Inc., San Diego, Calif.), polystyrene beads coated with fibrinogen are placed in a cartridge along with a peptide that activates the thrombin receptor. A whole blood citrate mixture is added to the cartridge, and agglutination between platelets and coated beads is recorded. The data mirror turbidometric platelet aggregation and reflect the degree of platelet glycoprotein IIb/IIIa blockade.
For all comparisons, statistical analyses were done by using repeated measures ANOVA. Post hoc comparison was performed by use of the Bonferroni t-test to identify specific differences in platelet aggregation and receptor expression between patients treated with TNK and t-PA, and controls. […] Normally distributed data were expressed as mean±SE, and skewed data as median (range). […]

[3] = test system: platelets; experiment: in vitro whole blood flow cytometry of platelet receptors and platelet-monocyte aggregates; conditions: TNK 12 μg/mL, t-PA 4 μg/mL
Protocol: as §1
The surface expression of platelet receptors was determined by flow cytometry by using the following monoclonal antibodies: CD 41 (glycoprotein [GP] IIb/IIIa, α IIbβ3) CD 42b (GP Ib), CD 62p (P-selectin), CD 51/CD 61 (αvβ3, or vitronectin receptor), CD 31 (platelet endothelial cell adhesion molecule [PECAM]-1), CD 107a (LAMP-1), CD 107b (LAMP-2), CD 63 (LIMP or LAMP-3), and CD 151 (PETA-3) (PharMingen, San Diego, Calif.). Platelet-leukocyte interactions were assessed by using dual antibodies for a pan-platelet marker (CD 41), together with CD 14, a monocyte/macrophage marker. The blood-citrate mixture (50 μl) was diluted with 450 μl Tris buffered saline (TBS) (10 mmol/L Tris, 0.15 mol/L sodium chloride) and mixed by gently inverting an Eppendorf tube 2 times. The corresponding antibody was then added (5 μl) and incubated at 4° C. for 30 minutes. After incubation, 400 μl of 2% buffered paraformaldehyde was added for fixation. The samples were analyzed on a Becton Dickinson FACScan flow cytometer set up to measure fluorescent light scatter, as previously described. All parameters were collected by using 4-decade logarithmic amplification. The data were collected in list mode files and then analyzed. P-selectin was expressed as percent positive cells. Other antigens were expressed as log mean fluorescence intensity.
For all comparisons, statistical analyses were done by using repeated measures ANOVA. Post hoc comparison was performed by use of the Bonferroni t-test to identify specific differences in platelet aggregation and receptor expression between patients treated with TNK and t-PA, and controls. The Mann-Whitney U test was used to analyze non-parametric data. Normally distributed data were expressed as mean±SE, and skewed data as median (range). Probability values of P<0.05 were regarded as statistically significant. Linear regression analysis was applied to normally distributed data for all study participants by using the Statview 4.1 program for analysis.

B1: t-PA: recombinant tissue plasminogen activator, thrombolytic agent (Genentech) (protein, UniProt P00750 36-562, looked up)
Tissue-type plasminogen …: SYQVICRDEKTQMIYQQHQSWLRPVLRSNRVEYCWCNSGRAQCHSVPVKSCSEPRCFNGGTCQQALYFSDFVCQCPEGFAGKCCEIDTRATCYEDQGISYRGTWSTAESGAECTNWNSSALAQKPYSGRRPDAIRLGLGNHNYCRNPDRDSKPWCYVFKAGKYSSEFCSTPACSEGNSDCYFGNGSAYRGTHSLTESGASCLPWNSMILIGKVYTAQNPSAQALGLGKHNYCRNPDGDAKPWCHVLKNRRLTWEYCDVPSCSTCGLRQYSQPQFRIKGGLFADIASHPWQAAIFAKHRRSPGERFLCGGILISSCWILSAAHCFQERFPPHHLTVILGRTYRVVPGEEEQKFEVEKYIVHKEFDDDTYDNDIALLQLKSDSSRCAQESSVVRTVCLPPADLQLPDWTECELSGYGKHEALSPFYSERLKEAHVRLYPSSRCTSQHLLNRTVTDNMLCAGDTRSGGPQANLHDACQGDSGGPLVCLNDGRMTLVGIISWGLGCGQKDVPGVYTKVTNYLDWIRDNMRP
platelet function, 10 of 15 parameters, compared with baseline DPBS values [1]: diminished platelet function
platelet activation units (Ultegra) compared with DPBS [2]: reduction
expression of PECAM-1 compared with saline-treated samples [3]: trend toward diminished expression
expression of glycoprotein IIb/IIIa compared with saline-treated samples [3]: reduced expression
formation of platelet-monocyte aggregates compared with saline-treated samples [3]: trend toward diminished
